Reference: the supplement of paper PMC9112550, “Optimization of the antimicrobial peptide Bac7 by deep mutational scanning” (BMC Biology, 2022)

The sequences below were run on Escherichia coli TOP10 (assay: shrunken log2 fold change of peptide-encoding DNA abundance (4.5 h post-induction vs induction); higher = less antimicrobial activity (less host growth inhibition)). Conditions: time post-induction: 4.5 h; library: site-saturation at positions 5, 18, 19, 20.
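Further: peptides expressed intracellularly from a pBAD plasmid library in pooled LB shake-flask culture, induced with 0.3% L-arabinose, DNA abundance read by NGS, three biological replicates, DESeq2 with apeglm shrinkage.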

| Sequence | shrunken log2 fold change |
| --- | --- |
| RRIRPRPPRLPRPRPRPFNVPRP | -0.0975 |
| RRIRDRPPRLPRPRPRPNHWPRP | 0.0735 |
| RRIRQRPPRLPRPRPRPKYPPRP | 0.0386 |
| RRIRSRPPRLPRPRPRPWCLPRP | -0.11 |
| RRIRWRPPRLPRPRPRPITCPRP | -0.0627 |
| RRIRFRPPRLPRPRPRPPSQPRP | -0.0751 |
| RRIRDRPPRLPRPRPRPWPHPRP | -0.00987 |
| RRIRMRPPRLPRPRPRPNYDPRP | -0.149 |
| RRIRCRPPRLPRPRPRPHLKPRP | -0.322 |
| RRIRSRPPRLPRPRPRPILVPRP | 0.0112 |
| RRIRRRPPRLPRPRPRPSGSPRP | -0.0977 |
| RRIRRRPPRLPRPRPRPVQLPRP | -0.0275 |
| RRIRFRPPRLPRPRPRPVMNPRP | -0.548 |
| RRIRVRPPRLPRPRPRPAEKPRP | 0.00294 |
| RRIRRRPPRLPRPRPRPKTKPRP | -0.146 |
| RRIRYRPPRLPRPRPRPNFEPRP | -0.242 |
| RRIRSRPPRLPRPRPRPKFVPRP | -0.0276 |
| RRIRSRPPRLPRPRPRPDYNPRP | -0.622 |
| RRIRYRPPRLPRPRPRPMMFPRP | -0.091 |
| RRIRGRPPRLPRPRPRPWYHPRP | -0.347 |
| RRIRRRPPRLPRPRPRPGYKPRP | -0.0679 |
| RRIRDRPPRLPRPRPRPIAKPRP | 0.0483 |
| RRIRRRPPRLPRPRPRPTAAPRP | 1.21 |
| RRIRERPPRLPRPRPRPVETPRP | -0.02 |
| RRIRSRPPRLPRPRPRPGSMPRP | -0.201 |

| Sequence | shrunken log2 fold change |
| --- | --- |
| RRIRLRPPRLPRPRPRPAHAPRP | 0.195 |
| RRIRDRPPRLPRPRPRPIEAPRP | 0.184 |
| RRIRRRPPRLPRPRPRPWHIPRP | -0.246 |
| RRIRHRPPRLPRPRPRPRYAPRP | -0.0694 |
| RRIRMRPPRLPRPRPRPWVFPRP | 0.152 |
| RRIRRRPPRLPRPRPRPLGWPRP | 1.07 |
| RRIRNRPPRLPRPRPRPRAFPRP | 0.0795 |
| RRIRQRPPRLPRPRPRPCLCPRP | -0.294 |
| RRIRYRPPRLPRPRPRPLALPRP | -0.816 |
| RRIRGRPPRLPRPRPRPFNEPRP | -0.231 |
| RRIRLRPPRLPRPRPRPGKIPRP | -0.125 |
| RRIRRRPPRLPRPRPRPKKQPRP | -0.0969 |
| RRIRERPPRLPRPRPRPWLKPRP | -0.24 |
| RRIRERPPRLPRPRPRPRAMPRP | 0.0549 |
| RRIRIRPPRLPRPRPRPDWSPRP | -0.161 |
| RRIRYRPPRLPRPRPRPDIRPRP | -0.00867 |
| RRIRLRPPRLPRPRPRPGDDPRP | 0.431 |
| RRIRKRPPRLPRPRPRPYMIPRP | -0.415 |
| RRIRWRPPRLPRPRPRPGIGPRP | 0.433 |
| RRIRIRPPRLPRPRPRPITAPRP | -0.592 |
| RRIRFRPPRLPRPRPRPSNQPRP | 0.0631 |
| RRIRERPPRLPRPRPRPKHQPRP | -0.0699 |
| RRIRQRPPRLPRPRPRPDWDPRP | -0.00122 |
| RRIRKRPPRLPRPRPRPFTEPRP | 0.0246 |
| RRIRWRPPRLPRPRPRPDDGPRP | 0.305 |

| Sequence | shrunken log2 fold change |
| --- | --- |
| RRIRFRPPRLPRPRPRPIIWPRP | -0.273 |
| RRIRNRPPRLPRPRPRPFHAPRP | -0.0245 |
| RRIRMRPPRLPRPRPRPLRPPRP | 1.76 |
| RRIRARPPRLPRPRPRPAWMPRP | -0.00906 |
| RRIRQRPPRLPRPRPRPTCEPRP | 0.0552 |
| RRIRNRPPRLPRPRPRPKMMPRP | -0.249 |
| RRIRRRPPRLPRPRPRPCMGPRP | -0.1 |
| RRIRLRPPRLPRPRPRPNMFPRP | -0.225 |
| RRIRRRPPRLPRPRPRPPMAPRP | 0.487 |
| RRIRIRPPRLPRPRPRPENIPRP | -0.106 |
| RRIRDRPPRLPRPRPRPMPMPRP | 0.0753 |
| RRIRIRPPRLPRPRPRPPAGPRP | 0.518 |
| RRIRLRPPRLPRPRPRPRPAPRP | 0.454 |
| RRIRRRPPRLPRPRPRPLDWPRP | 0.297 |
| RRIRCRPPRLPRPRPRPPHIPRP | 0.177 |
| RRIRERPPRLPRPRPRPYLHPRP | -0.96 |
| RRIRWRPPRLPRPRPRPYSIPRP | -0.296 |
| RRIRIRPPRLPRPRPRPALAPRP | 0.202 |
| RRIRQRPPRLPRPRPRPPMKPRP | 0.00136 |
| RRIRRRPPRLPRPRPRPTLRPRP | 0.712 |
| RRIRARPPRLPRPRPRPAWFPRP | 0.303 |
| RRIRFRPPRLPRPRPRPVTYPRP | -0.557 |
| RRIRRRPPRLPRPRPRPSLGPRP | 0.261 |
| RRIRERPPRLPRPRPRPWRKPRP | -0.173 |
| RRIRNRPPRLPRPRPRPGSLPRP | -0.0901 |

| Sequence | shrunken log2 fold change |
| --- | --- |
| RRIRLRPPRLPRPRPRPCNCPRP | 0.045 |
| RRIRSRPPRLPRPRPRPGACPRP | 0.0577 |
| RRIRPRPPRLPRPRPRPMAAPRP | 0.208 |
| RRIRTRPPRLPRPRPRPFAHPRP | -0.039 |
| RRIRRRPPRLPRPRPRPCCQPRP | 0.0136 |
| RRIRRRPPRLPRPRPRPNDGPRP | 0.0979 |
| RRIRWRPPRLPRPRPRPHIMPRP | -0.457 |
| RRIRGRPPRLPRPRPRPTIAPRP | 0.895 |
| RRIRQRPPRLPRPRPRPEQVPRP | 0.107 |
| RRIRMRPPRLPRPRPRPKAYPRP | 0.0225 |
| RRIRSRPPRLPRPRPRPEWCPRP | 0.219 |
| RRIRRRPPRLPRPRPRPDWGPRP | 0.157 |
| RRIRMRPPRLPRPRPRPFFTPRP | -0.054 |
| RRIRDRPPRLPRPRPRPCECPRP | -0.201 |
| RRIRGRPPRLPRPRPRPMREPRP | -0.00527 |
| RRIRQRPPRLPRPRPRPERIPRP | -0.328 |
| RRIRCRPPRLPRPRPRPSGPPRP | 0.124 |
| RRIRWRPPRLPRPRPRPRKYPRP | 0.0119 |
| RRIRPRPPRLPRPRPRPGLEPRP | 0.195 |
| RRIRYRPPRLPRPRPRPESTPRP | -0.00514 |
| RRIRSRPPRLPRPRPRPGKIPRP | -0.596 |
| RRIRTRPPRLPRPRPRPIPFPRP | -0.325 |
| RRIRVRPPRLPRPRPRPTPNPRP | 0.306 |
| RRIRNRPPRLPRPRPRPWFSPRP | -0.796 |
| RRIRDRPPRLPRPRPRPFSRPRP | -0.164 |

| Sequence | shrunken log2 fold change |
| --- | --- |
| RRIRWRPPRLPRPRPRPFCWPRP | 0.403 |
| RRIRGRPPRLPRPRPRPAIPPRP | -0.0508 |
| RRIRGRPPRLPRPRPRPTAIPRP | 0.974 |
| RRIRERPPRLPRPRPRPVKHPRP | 0.0875 |
| RRIRFRPPRLPRPRPRPFQYPRP | -0.127 |
| RRIRRRPPRLPRPRPRPEGEPRP | 1.17 |
| RRIRLRPPRLPRPRPRPRPKPRP | 0.294 |
| RRIRYRPPRLPRPRPRPHNAPRP | -1.21 |
| RRIRARPPRLPRPRPRPGGYPRP | 0.116 |
| RRIRCRPPRLPRPRPRPLRNPRP | 0.272 |
| RRIRKRPPRLPRPRPRPHRRPRP | 3.99 |
| RRIRWRPPRLPRPRPRPHDKPRP | 0.0422 |
| RRIRMRPPRLPRPRPRPDSPPRP | 0.0492 |
| RRIRWRPPRLPRPRPRPLGNPRP | -0.14 |
| RRIRPRPPRLPRPRPRPYMEPRP | 1.54 |
| RRIRGRPPRLPRPRPRPALAPRP | 1.17 |
| RRIRNRPPRLPRPRPRPPAAPRP | 0.676 |
| RRIRCRPPRLPRPRPRPSQDPRP | 0.0757 |
| RRIRWRPPRLPRPRPRPESQPRP | 0.185 |
| RRIRFRPPRLPRPRPRPGYGPRP | 0.019 |
| RRIRPRPPRLPRPRPRPQIEPRP | -0.0699 |
| RRIRPRPPRLPRPRPRPQHCPRP | -0.0861 |
| RRIRKRPPRLPRPRPRPMNRPRP | -0.029 |
| RRIRLRPPRLPRPRPRPGYPPRP | -0.361 |
| RRIRGRPPRLPRPRPRPHSCPRP | 0.153 |

| Sequence | shrunken log2 fold change |
| --- | --- |
| RRIRVRPPRLPRPRPRPQIDPRP | -0.321 |
| RRIRRRPPRLPRPRPRPKCLPRP | 0.144 |
| RRIRDRPPRLPRPRPRPWPNPRP | 0.0619 |
| RRIRHRPPRLPRPRPRPHDTPRP | -1.08 |
| RRIRKRPPRLPRPRPRPASSPRP | 0.0469 |
| RRIRKRPPRLPRPRPRPGTNPRP | 0.124 |
| RRIRERPPRLPRPRPRPCLIPRP | -0.0716 |
| RRIRIRPPRLPRPRPRPIRIPRP | 0.0736 |
| RRIRCRPPRLPRPRPRPLCTPRP | -0.088 |
| RRIRQRPPRLPRPRPRPNMCPRP | -0.195 |
| RRIRGRPPRLPRPRPRPHEGPRP | 0.403 |
| RRIRARPPRLPRPRPRPGNLPRP | -0.232 |
| RRIRGRPPRLPRPRPRPKTHPRP | 0.947 |
| RRIRLRPPRLPRPRPRPRNDPRP | -0.142 |
| RRIRNRPPRLPRPRPRPEAVPRP | 0.0335 |
| RRIRCRPPRLPRPRPRPKNKPRP | -0.244 |
| RRIRNRPPRLPRPRPRPFPFPRP | -0.22 |
| RRIRFRPPRLPRPRPRPHKWPRP | -0.073 |
| RRIRPRPPRLPRPRPRPDQWPRP | -0.0215 |
| RRIRCRPPRLPRPRPRPPQVPRP | 0.204 |
| RRIRCRPPRLPRPRPRPHRIPRP | -0.492 |
| RRIRPRPPRLPRPRPRPWWFPRP | -0.133 |
| RRIRCRPPRLPRPRPRPTWWPRP | 0.294 |
| RRIRVRPPRLPRPRPRPLKLPRP | -0.337 |
| RRIRYRPPRLPRPRPRPLNYPRP | -0.0845 |
